# Assay results as given in US9603896B2, “Peptide compounds and methods of production and use thereof” (priority 2012, dated 2017).
# Ends that are not written are not given here.
# B1: CAP37: cationic antimicrobial protein of Mr 37 kDa; recombinant CAP37 produced in HEK 293 cells (protein)
# chain: IVGGRKARPRQFPFLASIQNQGRHFCGGALIHARFVMTAASCFQSQNPGVSTVVLGAYDLRRRERQSRQTFSISSMSENGYDPQQNLNDLMLLQLDREANLTSSVTILPLPLQNATVEAGTRCQVAGWGSQRSGGRLSRFPRFVNVTVTPEDQCRPNNVCTGVLTRRGGICNGDGGTPLVCEGLAHGVASFSLGPCGRGPDFFTRVALFRDWIDGVLNNPGP
# B2: heparin binding-epidermal growth factor (protein, UniProt Q99075 63-148, looked up)
# Heparin-binding EGF-like …: DLQEADLDLLRVTLSSKPQALATPNKEEHGKRKKKGKGLGKKRDPCLRKYKDFCIHGECKYVKELRAPSCICHPGYHGERCHGLSL
# notes: positive control growth factor
# Tests used:
# [1] = tested on: Pseudomonas clinical isolate B64; test: BIOSCREEN C™ growth assay, antibiotic and peptide combinations; assay type: cell-based, Pseudomonas aeruginosa
# Description: Cefotaxime (Cefo) and peptide combinations included a constant amount of Cefotaxime (2.81 μg/ml) with suboptimal amounts of peptide (0, 0.34, 1.01, and 3.04 μg/ml).
# The peptide and antibiotics were set up in the wells of the microtiter plate at starting ratios of MIC equivalents of antibiotic:peptide at 3:1, 1:1, and 1:3. They were serially diluted to concentrations well below suboptimal/sublethal levels of the antibiotic and peptide. The organism was added (1×10^5 CFU/well), the BIOSCREEN C™ assay (Growth Systems USA, Piscataway, N.J.) was performed, and data was collected over 24 hours.
# [2] = assay type: physicochemical
# Text: In the initial stages of the work leading to the presently disclosed and claimed inventive concept(s), sequential addition of amino acids was used to make the peptides. Three candidate peptides (CAP3720-44 (SEQ ID NO:1), CAP3720-44ser26 (SEQ ID NO:2), and CAP3720-44ser42 (SEQ ID NO:5)) were synthesized. […] In one embodiment, a fragment Fmoc condensation strategy was used rather than sequential addition of amino acids. In the fragment condensation method, three small fragments were made and condensed together to form a CAP3720-44ser42 amino acid sequence (SEQ ID NO:5). The rationale behind this reasoning was that three small fragments could be synthesized in a highly purified form and linked together, thereby overcoming some of the aggregation problems. The product from this synthesis was dialyzed against 1% acetic acid and lyophilized and determined to be approximately 50% pure. Antimicrobial activity of this peptide was approximately half of what was normally obtained. In one embodiment, the dialysis procedure was changed to employ a dilute tri-fluoro acetic acid (TFA) solution (e.g., 0.1%), which obtained a product with stronger antimicrobial activity and greater purity (about 80%). In the next production, a cysteine residue was used that was protected during synthesis and then de-protected in the final stages of purification, in an attempt to improve stability.
# When the arginines were linked to the peptide to form the peptide backbone (SEQ ID NOs: 18-20), there was marked increase in solubility of the peptides and very potent activity (capable of reducing bacterial load from 1×10^6 CFU/ml to […] CFU/ml, a 5 log reduction). […] Much time and experimental effort was spent in the laboratory exploring purification techniques, but yield and purity could not be increased beyond about 70%. […] Finally, after extensive additional experimentation, another solubilizing moiety was added to the peptides, and this addition increased half-life, solubility, and purity of the peptides. […]
# [3] = tested on: HCEC monolayers; test: In vitro scratch assay of wound closure in HCEC monolayers; assay type: cell-based, human
# Description: An in vitro scratch assay was used in order to determine the ability of rCAP37 to facilitate corneal wound healing. Human corneal epithelial cells were cultured as described above until they reached a confluent monolayer. Each monolayer was scratched using a 10 μl pipette tip to create two perpendicular lines. Monolayers were treated with heparin binding-epidermal growth factor (HB-EGF, 250 ng/ml; Becton Dickinson), rCAP37 (25-2000 ng/ml), or basal KSFM (Gibco). Wound closure was monitored at 0, 18, 24, and 48 hours utilizing a camera-equipped inverted microscope (TE2000-E; Nikon, Melville, N.Y.). Time-lapse images of in vitro wound closure were obtained using a camera-equipped inverted microscope (TE2000-E; Nikon) from 0-18 hours. HCEC monolayers were treated with HB-EGF, rCAP37, and basal KSFM as described above. The width of each scratch was quantitated using ImageJ software (US National Institutes of Health, Bethesda, Md.). Results are presented as the percentage of wound closure.
# [4] = tested on: mouse cornea; test: In vivo model of corneal wound healing (corneal epithelial abrasion)
# Description: The in vivo model of wound healing was carried out using a disposable biopsy punch (2 mm, Miltex, York, Pa.) to demarcate the mouse cornea and a 0.5 mm burr using the AlgerBrush II (The Alger Company, Inc., Lago Vista, Tex.) to remove the corneal epithelium. The corneal abrasions were treated at 0 and 16 hours with peptide 95-122 (10^−5 M), peptide 120-146WH (10^−6 M and 10^−8M), peptide 120-146WR ((10^−6 M and 10^−8M), or vehicle control (0.9% sodium chloride, pH 5.5, Baxter, Deerfield, Ill.). Corneal abrasions were visualized using sterile fluorescein sodium ophthalmic strips USP (Fluorets®, Chauvin Laboratory, Aubenas, France) dampened with sterile PBS. Images were taken at 0, 16, and 24 hours immediately following fluorescein staining.
# Mice were anesthetized using ketamine (100 mg/kg; Bionichepharma, LLC., St. Lake Forrest, Ill.) and xylazine ([…]; Rompun; Bayer Corp., Shawnee Mission, Kans.), and the right cornea was wounded as follows. A disposable biopsy punch (2 mm, Miltex, York, Pa.) was used to demarcate the mouse cornea. The corneal epithelium was carefully removed within the 2 mm demarcated area with a 0.5 mm burr using the AlgerBrush II (The Alger Company, Inc., Lago Vista, Tex.). The corneal abrasions were treated at 0 and 16 hours with HB-EGF (250 ng/ml), rCAP37 (250 ng/ml), or vehicle control (0.9% sodium chloride, pH 5.5, Baxter, Deerfield, Ill.). Corneal abrasions were visualized using sterile fluorescein sodium ophthalmic strips USP (FLUORETS®, Chauvin Laboratory, Aubenas, France) dampened with sterile PBS. Images were taken at 0, 16, 24, and 48 hours immediately following fluorescein staining using a surgical microscope equipped with a camera (Carl Zeiss OPMI VISU 140, Carl Zeiss Surgical, Inc., Oberkochen, Germany). The areas of the open wound were quantitated using ImageJ software (US National Institutes of Health), and the results were reported as the percentage of wound closure.
# Whole mouse eyes were collected for histology at 0, 6, 16, 24, and 48 hours post wounding and were immediately placed in Prefer fixative (Anatech LTD., Battle Creek, Mich.) for 20 minutes before being transferred to 70% ethanol. Tissues were paraffin-embedded and cut at a thickness of 5 μm, mounted on SUPERFROSTPLUS® slides (Statlab Medical Products, Lewisville, Tex.), and subsequently deparaffinized, rehydrated, and washed in deionized water. Sections were stained with hematoxylin (Leica Microsystems, Buffalo Grove, Ill.) and rinsed twice in deionized water before being washed in Blue Buffer (Leica Microsystems). The sections were finally washed in deionized water and 95% ethanol prior to being counterstained with eosin (Leica Microsystems). Sections were dehydrated in ethanol and cleared in xylene.
# [5] = tested on: human corneal epithelial cell (HCEC); test: HCEC chemotaxis, modified Boyden chemotaxis chamber assay; assay type: cell-based; details: 120-146QH at 10^−4, 10^−6, 10^−8, 10^−10 M; 120-146QR at 10^−6, 10^−8 M; HB-EGF 50 ng/ml; rCAP37 250 ng/ml; 3 hours at 37° C
# Description: The effect of buffer control (0.1% BSA in Gey's buffer), heparin binding-epidermal growth factor (HB-EGF, 50 ng/ml), recombinant CAP37 (rCAP37, 250 ng/ml), 120-146QH (10^−12M, 10^−10 M, 10^−8 M, 10^−6M, and 10^−4M,) and 120-146QR (10^−10M, 10^−8M, 10^−6M, and 10^−4M) on HCEC chemotaxis was determined by the modified Boyden chemotaxis chamber method. HCEC chemotaxis was measured in response to HB-EGF, rCAP37, and peptides 120-146QH (SEQ ID NO:29) and 120-146QR (SEQ ID NO:28) after incubation for 3 hours at 37° C. Chemotaxis is expressed as a percent migration. The buffer control (no chemoattractant) is arbitrarily assigned the value of 100% migration. Data are expressed as means±SEM and are calculated from 6 observations for each test point. **P<0.01 by Wilcoxon signed-rank test as compared to controls.
# Chemotaxis assays were performed using the modified Boyden chemotaxis chamber assay. Peptide 120-146QH was used at 10^−4 M, 10^−6 M, 10^−8 M, 10^−10 M, and 10^−12 M, and peptide 120-146QR was used at 10^−4 M, 10^−6M, 10^−8M, and 10^−10 M.
molecule,measurement,setting,value
"CO/N=C(\C(=O)N[C@@H]1C(=O)N2C(C(=O)O)=C(COC(C)=O)CS[C@H]12)c1csc(N)n1 [Cefotaxime, reference compound]",bactericidal impact of antibiotic alone,[1]; 2.8 μg/ml,very little bactericidal impact
"C[C@H]1COc2c(N3CCN(C)CC3)c(F)cc3c(=O)c(C(=O)O)cn1c23 [Levofloxacin, reference compound]",MIC of Levofloxacin in combination with peptide,[1]; in the presence of 3.04 μg/ml of the peptide BCC02-5RMP,3.5 µg/mL
NQGRHFCGGALIHARFVMTAASCFQ (listed as Homo sapiens) [CAP3720-44],solubility,[2],relatively insoluble
NQGRHFCGGALIHARFVMTAASSFQ [CAP3720-44ser42],solubility,[2],relatively insoluble
NQGRHFSGGALIHARFVMTAASCFQ [CAP3720-44ser26],solubility,[2],relatively insoluble
B1,percentage wound closure,"[3]; 250 ng/ml, at 18 hours",~71%
same,percentage wound closure,[3]; 500 ng/ml,approximately 62%
same,reduction of wound size (wound closure),"[4]; 16 hours, 250 ng/ml topical at 0 and 16 hours",71%
same,re-epithelialization (H&E histology) vs vehicle-treated wounds,"[4]; 24 hours, 250 ng/ml",greatly accelerated
same,wound closure,"[4]; 24 hours, 250 ng/ml topical at 0 and 16 hours",83%
same,structural integrity of epithelium (H&E histology),"[4]; 48 hours, 250 ng/ml",regained full integrity
same,migration of HCECs vs buffer control,[5],significant increase in migration
B2,time to complete closure of scratch wounds,[3]; 250 ng/ml,≤ 24 h
same,percentage wound closure,"[3]; 250 ng/ml, at 18 hours",~88%
same,closure of wounds compared to the buffer control,[4]; 250 ng/ml at 0 and 16 hours,significantly higher
same,migration of HCECs vs buffer control,[5],significant increase in migration
